In US20150140169:
Substitutions are numbered along the chain they refer to. Names may count otherwise.

T1: alpha-s1 casein from Bos taurus
T1 chain: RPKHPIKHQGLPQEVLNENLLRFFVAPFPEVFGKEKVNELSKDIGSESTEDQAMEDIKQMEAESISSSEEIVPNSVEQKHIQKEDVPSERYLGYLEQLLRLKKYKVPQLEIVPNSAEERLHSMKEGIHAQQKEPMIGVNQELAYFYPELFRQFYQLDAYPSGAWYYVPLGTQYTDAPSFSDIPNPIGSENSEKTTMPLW

B1: Maxiren (recombinant wild-type calf chymosin B) (protein)
chain: GEVASVPLTNYLDSQYFGKIYLGTPPQEFTVLFDTGSSDFWVPSIYCKSNACKNHQRFDPRKSSTFQNLGKPLSIHYGTGSMQGILGYDTVTVSNIVDIQQTVGLSTQEPGDVFTYAEFDGILGMAYPSLASEYSIPVFDNMMNRHLVAQDLFSVYMDRNGQESMLTLGAIDPSYYTGSLHWVPVTVQQYWQFTVDSVTISGVVVACEGGCQAILDTGTSKLVGPSSDILNIQQAIGATQNQYGEFDIDCDNLSYMPTVVFEINGKMYPLTPSAYTSQDQGFCTSGFQSENHSQKWILGDVFIREYYSVFDRANNLVGLAKAI
B2: camel chymosin variant #138 (F223E) (protein)
chain: GKVAREPLTSYLDSQYFGKIYIGTPPQEFTVVFDTGSSDLWVPSIYCKSNVCKNHHRFDPRKSSTFRNLGKPLSIHYGTGSMEGFLGYDTVTVSNIVDPNQTVGLSTEQPGEVFTYSEFDGILGLAYPSLASEYSVPVFDNMMDRHLVARDLFSVYMDRNGQGSMLTLGAIDPSYYTGSLHWVPVTLQQYWQFTVDSVTINGVAVACVGGCQAILDTGTSVLEGPSSDILKIQMAIGATENRYGEFDVNCGNLRSMPTVVFEINGRDYPLSPSAYTSKDQGFCTSGFQGDNNSELWILGDVFIREYYSVFDRANNRVGLAKAI
B3: camel chymosin variant #147 (Q288H) (protein)
chain: B2 chain with E223F, Q288H
B4: camel chymosin variant #142 (F223Q) (protein)
chain: B2 chain with E223Q
B5: camel chymosin variant #144 (F223Y) (protein)
chain: B2 chain with E223Y
B6: camel chymosin variant #143 (F223V) (protein)
chain: B2 chain with E223V
B7: camel chymosin variant #146 (Q288G) (protein)
chain: B2 chain with E223F, Q288G
B8: camel chymosin variant #149 (Q288R) (protein)
chain: B2 chain with E223F, Q288R
B9: camel chymosin variant #148 (Q288N) (protein)
chain: B2 chain with E223F, Q288N
B10: camel chymosin variant #151 (D290A) (protein)
chain: B2 chain with E223F, D290A
B11: camel chymosin variant #145 (F223I) (protein)
chain: B2 chain with E223I
B12: camel chymosin variant #139 (F223L) (protein)
chain: B2 chain with E223L
B13: camel chymosin variant #150 (Q288S) (protein)
chain: B2 chain with E223F, Q288S
B14: camel chymosin variant #141 (F223N) (protein)
chain: B2 chain with E223N
B15: camel chymosin variant #140 (F223M) (protein)
chain: B2 chain with E223M

Target: T1, alpha-s1 casein from Bos taurus

Protein | (αSN1-1)/(αSN1), 6 hours, 11° C. (average) | (αSN1-1)/(αSN1), 24 hours, 11° C. (average) | hydrolysis of the first cut in alpha-s1-casein | small, 6 hours, 11° C. [Volume] | small, 16 hours, 30° C. [Volume] | small, 24 hours, 11° C. [Volume] | αs1-I CN, 6 hours, 11° C. [Volume] | αs1-I CN, 6 hours, 11° C. (average) [Volume] | αs1-I CN, 16 hours, 30° C. [Volume] | αs1-I CN, 24 hours, 11° C. [Volume]
B1 | 1.7 | 6.3 | This rapid first cut is similar to the situation with wild-type calf chymosin (Maxiren) | 0 | 8.1e+06 | 6.7e+06 | 2.12e+07 | 2.63e+07 | 600000 | 1.59e+07
B2 |  |  |  |  |  |  | 2e+07 |  |  | 2.47e+07
B3 |  |  |  |  |  |  | 2.28e+07 |  |  | 2.35e+07
B4 |  |  |  |  |  |  | 2.55e+07 |  |  | 1.75e+07
B5 |  |  |  |  |  |  | 3.05e+07 |  |  | 2.82e+07
B6 |  |  |  |  |  |  | 2.62e+07 |  |  | 1e+07
B7 |  |  |  |  |  |  | 2.17e+07 |  |  | 2.85e+07
B8 |  |  |  |  |  |  | 2.16e+07 |  |  | 2.25e+07
B9 |  |  |  |  |  |  | 1.74e+07 |  |  | 2.62e+07
B10 |  |  |  |  |  |  | 2.29e+07 |  |  | 3.22e+07
B11 |  |  |  |  |  |  | 1.91e+07 |  |  | 1.17e+07
B12 |  |  |  |  |  |  | 2.59e+07 |  |  | 1.24e+07
B13 |  |  |  |  |  |  | 1.83e+07 |  |  | 2.31e+07
B14 |  |  |  |  |  |  | 2.57e+07 |  |  | 2.49e+07
B15 |  |  |  |  |  |  | 2.34e+07 |  |  | 2.27e+07

Same assay, conditions: not given

Protein | αs1-I CN, 24 hours, 11° C. (average) [Volume] | αs1-I CN/αs1 CN, 6 hours, 11° C. | αs1-I CN/αs1 CN, 24 hours, 11° C. | αs1 CN, 6 hours, 11° C. [Volume] | αs1 CN, 6 hours, 11° C. (average) [Volume] | αs1 CN, 16 hours, 30° C. [Volume] | αs1 CN, 24 hours, 11° C. [Volume] | αs1 CN, 24 hours, 11° C. (average) [Volume] | (αSN1-1)/(αSN1), 6 hours, 11° C. | (αSN1-1)/(αSN1), 24 hours, 11° C.
B1 | 2.52e+07 | 1.9 | 9.7 | 1.14e+07 | 1.58e+07 | 900000 | 1.6e+06 | 4e+06 |  | 
B2 |  |  |  | 3.29e+07 |  |  | 1.74e+07 |  | 0.6 | 1.4
B3 |  |  |  | 2.15e+07 |  |  | 7e+06 |  | 1.1 | 3.3
B4 |  |  |  | 3.72e+07 |  |  | 1.02e+07 |  | 0.7 | 1.7
B5 |  |  |  | 3.12e+07 |  |  | 8.4e+06 |  | 1 | 3.3
B6 |  |  |  | 2.36e+07 |  |  | 4.1e+06 |  | 1.1 | 2.4
B7 |  |  |  | 2.38e+07 |  |  | 1.23e+07 |  | 0.9 | 2.3
B8 |  |  |  | 2.22e+07 |  |  | 6.7e+06 |  | 1 | 3.3
B9 |  |  |  | 2.83e+07 |  |  | 2.03e+07 |  | 0.6 | 1.3
B10 |  |  |  | 2.31e+07 |  |  | 1.31e+07 |  | 1 | 2.5
B11 |  |  |  | 1.57e+07 |  |  | 2.8e+06 |  | 1.2 | 4.1
B12 |  |  |  | 2.1e+07 |  |  | 2.9e+06 |  | 1.2 | 4.3
B13 |  |  |  | 2.87e+07 |  |  | 1.72e+07 |  | 0.6 | 1.3
B14 |  |  |  | 3.57e+07 |  |  | 1.27e+07 |  | 0.7 | 2
B15 |  |  |  | 3.22e+07 |  |  | 1.14e+07 |  | 0.7 | 2
